Experimental data: PMC5368982, “Engineering Structurally Interacting RNA (sxRNA)”

Assays:
[1] = molecular target: T1, SLBP (histone stem-loop binding protein) (UniProt Q14493 1-270); assay: RIP pull-down with recombinant SLBP; with T-1* trigger; EMSA: 1x NT2 buffer, 1 mM DTT, RNaseOUT, 50 uL, room temperature 1 h, 1.25 ug SLBP (~37 pmol), native 8% PAGE in 1x TB; RIP: RNAs in 10 mM Tris/100 mM NaCl; pH; details: label: none, trans three-way junction, bait:trigger 1:1, not a blunt duplex
[2] = molecular target: T1, SLBP (histone stem-loop binding protein); assay: EMSA; without trigger; EMSA: 1x NT2 buffer, 1 mM DTT, RNaseOUT, 50 uL, room temperature 1 h, 1.25 ug SLBP (~37 pmol), native 8% PAGE in 1x TB; RIP: RNAs in 10 mM Tris/100 mM NaCl; pH; details: protein: recombinant; label: none; alternative fold without HSL
[3] = molecular target: T1, SLBP (histone stem-loop binding protein); assay: EMSA; with T-1 trigger; EMSA: 1x NT2 buffer, 1 mM DTT, RNaseOUT, 50 uL, room temperature 1 h, 1.25 ug SLBP (~37 pmol), native 8% PAGE in 1x TB; RIP: RNAs in 10 mM Tris/100 mM NaCl; pH; details: protein: recombinant; label: none; trans three-way junction, bait:trigger 1:1, not a blunt duplex

B1: B-1a + T-1* (trans-3WJ) (mixed)
RNA 1: GGGCAAACACCAUUGUCAAAAGGCUCUUUUCAGAGCCACACUCCA
RNA 2: UGGAGUGUGACAAUGGUGUUUG
modifications: 2'-OMe on trigger (strand 2)
binding result [1]: binds

B2: B-1b (structured_RNA)
RNA: GGGAAGAGAGCCCAAACACCAUUGUCAAAAGGCUCUUUUCAGAGCUACACUCCAGAGCU
modifications: none
binding result [2]: no binding

B3: B-1b + T-1 (trans-3WJ) (structured_RNA)
RNA 1: B2 RNA
RNA 2: UGGAGUGUGACAAUGGUGUUUG
modifications: none
binding result [3]: binds
